T1: cynomolgus monkey FcγRIIa1 extracellular domain with C-terminal His-tag (cynomolgus monkey)
T1 construct: Expressed in FreeStyle 293 cells and purified; also called cyno FcγRIIa1; cynoFcgRIIa1; not shown: C-terminal His-tag
T1 chain: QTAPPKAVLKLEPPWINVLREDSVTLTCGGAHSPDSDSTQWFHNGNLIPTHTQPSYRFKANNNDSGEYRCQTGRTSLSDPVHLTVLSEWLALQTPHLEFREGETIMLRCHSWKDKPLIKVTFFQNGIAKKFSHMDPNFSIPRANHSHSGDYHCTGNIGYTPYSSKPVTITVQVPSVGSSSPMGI

T2: cynomolgus monkey FcγRIIa2 extracellular domain with C-terminal His-tag (cynomolgus monkey)
T2 construct: Expressed in FreeStyle 293 cells and purified; also called cyno FcγRIIa2; cynoFcgRIIa2; not shown: C-terminal His-tag
T2 chain: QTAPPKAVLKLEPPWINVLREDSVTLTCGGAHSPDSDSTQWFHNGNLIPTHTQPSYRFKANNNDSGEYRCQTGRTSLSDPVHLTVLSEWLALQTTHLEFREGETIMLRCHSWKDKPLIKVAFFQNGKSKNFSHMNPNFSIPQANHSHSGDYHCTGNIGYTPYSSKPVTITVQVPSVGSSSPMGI

T3: cynomolgus monkey FcγRIIa3 extracellular domain with C-terminal His-tag (cynomolgus monkey)
T3 construct: Expressed in FreeStyle 293 cells and purified; also called cyno FcγRIIa3; cynoFcgRIIa3; not shown: C-terminal His-tag
T3 chain: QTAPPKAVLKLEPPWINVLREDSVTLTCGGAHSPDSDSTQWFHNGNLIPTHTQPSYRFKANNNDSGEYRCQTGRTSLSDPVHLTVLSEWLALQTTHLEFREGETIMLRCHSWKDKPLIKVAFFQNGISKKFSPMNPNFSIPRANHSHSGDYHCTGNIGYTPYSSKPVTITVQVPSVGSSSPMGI

T4: cynomolgus monkey FcγRIIb extracellular domain with C-terminal His-tag (cynomolgus monkey)
T4 construct: Expressed in FreeStyle 293 cells and purified; also called cyno FcγRIIb; cynoFcγRIIb; not shown: C-terminal His-tag
T4 chain: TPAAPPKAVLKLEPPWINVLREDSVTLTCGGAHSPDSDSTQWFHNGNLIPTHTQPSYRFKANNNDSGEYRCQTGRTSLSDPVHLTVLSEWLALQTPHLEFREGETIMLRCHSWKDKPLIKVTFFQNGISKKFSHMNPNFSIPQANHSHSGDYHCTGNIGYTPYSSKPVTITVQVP

T5: cynomolgus monkey FcγRIIIaS extracellular domain with C-terminal His-tag (cynomolgus monkey, UniProt Q8SPW2 21-206 at identity 1.00))
T5 construct: Expressed in FreeStyle 293 cells and purified; also called cyno FcγRIIIaS; cynoFcγRIIIaS; not shown: C-terminal His-tag
T5 chain: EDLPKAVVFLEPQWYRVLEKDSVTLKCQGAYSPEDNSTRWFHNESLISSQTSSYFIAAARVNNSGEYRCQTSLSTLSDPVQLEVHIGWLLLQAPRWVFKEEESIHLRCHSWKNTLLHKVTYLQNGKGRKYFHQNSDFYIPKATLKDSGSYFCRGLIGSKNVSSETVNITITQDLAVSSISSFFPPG

T6: human FcγRIIaH extracellular domain with C-terminal His-tag (human, UniProt P12318 34-217)
T6 construct: Expressed in FreeStyle 293 cells and purified; also called human FcγRIIa (type H); FcgRIIaH; not shown: C-terminal His-tag
T6 sequence: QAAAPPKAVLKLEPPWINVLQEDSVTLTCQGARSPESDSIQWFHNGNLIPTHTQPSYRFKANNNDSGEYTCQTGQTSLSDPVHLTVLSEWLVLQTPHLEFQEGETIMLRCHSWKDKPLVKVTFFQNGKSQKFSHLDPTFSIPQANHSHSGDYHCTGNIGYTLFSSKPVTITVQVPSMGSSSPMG

T7: human FcγRIIaR extracellular domain with C-terminal His-tag (human, UniProt P12318 34-217)
T7 construct: Expressed in FreeStyle 293 cells and purified; also called human FcγRIIa (type R); FcgRIIaR; not shown: C-terminal His-tag
T7 chain: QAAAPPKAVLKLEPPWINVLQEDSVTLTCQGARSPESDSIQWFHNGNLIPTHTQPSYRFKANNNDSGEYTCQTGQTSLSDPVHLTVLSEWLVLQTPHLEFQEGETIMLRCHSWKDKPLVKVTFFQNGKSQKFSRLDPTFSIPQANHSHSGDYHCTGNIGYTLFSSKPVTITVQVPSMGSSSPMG

T8: human FcγRIIb extracellular domain with C-terminal His-tag (human, UniProt P31994 43-217)
T8 construct: Expressed in FreeStyle 293 cells and purified; also called humanFcgRIIb; not shown: C-terminal His-tag
T8 sequence: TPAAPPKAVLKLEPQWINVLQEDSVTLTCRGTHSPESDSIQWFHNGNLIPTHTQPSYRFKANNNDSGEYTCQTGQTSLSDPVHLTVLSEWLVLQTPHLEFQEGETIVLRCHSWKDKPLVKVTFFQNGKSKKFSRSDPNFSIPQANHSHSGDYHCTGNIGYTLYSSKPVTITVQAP


Tests used:
Experiment in all cases: SPR (Biacore); KD of SG1 divided by KD of the variant for this FcgR;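 further: relative to parent M103205H795-SG1 carrying the SG1 human heavy chain constant region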
[1] = molecular target: T1, cynomolgus monkey FcγRIIa1 …
[2] = molecular target: T2, cynomolgus monkey FcγRIIa2 …
[3] = molecular target: T3, cynomolgus monkey FcγRIIa3 …
[4] = molecular target: T4, cynomolgus monkey FcγRIIb extracellular …
[5] = molecular target: T5, cynomolgus monkey FcγRIIIaS …
[6] = molecular target: T6, human FcγRIIaH extracellular domain …
[7] = molecular target: T7, human FcγRIIaR extracellular domain …
[8] = molecular target: T8, human FcγRIIb extracellular domain with …
[9] = molecular target: T9, human FcγRIIIaV extracellular domain with C-terminal His-tag (human, UniProt P08637 17-208)
T9 construct: Expressed in FreeStyle 293 cells and purified; also called FcgRIIIaV; not shown: C-terminal His-tag
T9 sequence (P08637 17-208 F176V): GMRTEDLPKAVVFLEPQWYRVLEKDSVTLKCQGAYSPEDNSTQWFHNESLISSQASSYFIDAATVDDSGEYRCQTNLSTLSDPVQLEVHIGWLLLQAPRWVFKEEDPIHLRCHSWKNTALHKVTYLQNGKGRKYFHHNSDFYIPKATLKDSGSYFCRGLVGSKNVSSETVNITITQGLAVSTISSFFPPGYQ

Binder	KD fold (SG1 = 1) [1]	KD fold (SG1 = 1) [2]	KD fold (SG1 = 1) [3]	KD fold (SG1 = 1) [4]	KD fold (SG1 = 1) [5]	KD fold (SG1 = 1) [6]	KD fold (SG1 = 1) [7]	KD fold (SG1 = 1) [8]	KD fold (SG1 = 1) [9]
M103205H795-MY440 / M103202L889-SK1 (antibody, human IgG1, kappa, Fc variant of M103205H795-SG1, expressed with M103202L889-SK1 as light chain) heavy: QVTLKESGPVLVKPTETLTLTCTVSGIDLSHDDISWVRQAPGKGLEWVGIISYAGSTYYASWAKGRLTISKDTSKNQVVLTMTNMDPVDTATYYCARGVPAYSHGGDLWGQGTLVTVSSASTKGPSVFPLAPSSKSTSGGTAALGCLVKDYFPEPVTVSWNSGALTSGVHTFPAVLQSSGLYSLSSVVTVPSSSLGTQTYICNVNHKPSNTKVDKKVEPKSCDKTHTCPPCPAPELWNGPSVFLFPPKPKDTLMISRTPEVTCVVVDVSDEDPEVKFNWYVDGVEVHNAKTKPREELYNSTYRVVSVLTVLHQDWLNGKEYKCKVSNKALPKPIEKTISKAKGQPREPQVYTLPPSREEMTKNQVSLTCLVKGFYPSDIAVEWESNGQPENNYKTTPPVLDSDGSFFLYSKLTVDKSRWQQGNVFSCSVMHEALHNHYTQKSLSLSP light: DIVMTQSPATLSLSPGERATLSCTSSQSVYHANWLSWFQQKPGQPPKLLIYWASTLAYGVPSRFSGSGSGTDFTLTISSLQPEDAATYYCAGGYGGGRYAFGQGTKVEIKRTVAAPSVFIFPPSDEQLKSGTASVVCLLNNFYPREAKVQWKVDNALQSGNSQESVTEQDSKDSTYSLSSTLTLSKADYEKHKVYACEVTHQGLSSPVTKSFNRGEC	2 fold	2.8 fold	3.5 fold	5.9 fold	0.04 fold	0.8 fold	1 fold	5.8 fold	0.05 fold
M103205H795-MY538 (Table 19; L235W/G236N/H268D/Q295L/K326T/A330K) / M103202L889-SK1 (antibody, human IgG1, kappa, Fc variant of M103205H795-SG1, expressed with M103202L889-SK1; the text names MY518 for this set of substitutions; also called probably MY518 of the text) heavy: QVTLKESGPVLVKPTETLTLTCTVSGIDLSHDDISWVRQAPGKGLEWVGIISYAGSTYYASWAKGRLTISKDTSKNQVVLTMTNMDPVDTATYYCARGVPAYSHGGDLWGQGTLVTVSSASTKGPSVFPLAPSSKSTSGGTAALGCLVKDYFPEPVTVSWNSGALTSGVHTFPAVLQSSGLYSLSSVVTVPSSSLGTQTYICNVNHKPSNTKVDKKVEPKSCDKTHTCPPCPAPELWNGPSVFLFPPKPKDTLMISRTPEVTCVVVDVSDEDPEVKFNWYVDGVEVHNAKTKPREELYNSTYRVVSVLTVLHQDWLNGKEYKCKVSNTALPKPIEKTISKAKGQPREPQVYTLPPSREEMTKNQVSLTCLVKGFYPSDIAVEWESNGQPENNYKTTPPVLDSDGSFFLYSKLTVDKSRWQQGNVFSCSVMHEALHNHYTQKSLSLSP light: DIVMTQSPATLSLSPGERATLSCTSSQSVYHANWLSWFQQKPGQPPKLLIYWASTLAYGVPSRFSGSGSGTDFTLTISSLQPEDAATYYCAGGYGGGRYAFGQGTKVEIKRTVAAPSVFIFPPSDEQLKSGTASVVCLLNNFYPREAKVQWKVDNALQSGNSQESVTEQDSKDSTYSLSSTLTLSKADYEKHKVYACEVTHQGLSSPVTKSFNRGEC	3.6 fold	5.7 fold	7.1 fold	6.9 fold	0.09 fold	0.8 fold	1.6 fold	9.6 fold	0.04 fold

— patent US20200317768A1 (published 2020)
